In paper PMC4574047, “Biochemical Characterization of Putative Adenylate Dimethylallyltransferase and Cytokinin Dehydrogenase from Nostoc sp. PCC 7120” (PLoS ONE, 2015):

T1: NoIPT1 (Nostoc sp. PCC 7120 = FACHB-418, UniProt A0ACD7S271)
T1 construct: gene all0220; full gene in pET-28b(+) (NdeI/SalI), N-terminal polyhistidine tag kept; E. coli BL21(DE3) STAR
T1 sequence (A0ACD7S271 1-244): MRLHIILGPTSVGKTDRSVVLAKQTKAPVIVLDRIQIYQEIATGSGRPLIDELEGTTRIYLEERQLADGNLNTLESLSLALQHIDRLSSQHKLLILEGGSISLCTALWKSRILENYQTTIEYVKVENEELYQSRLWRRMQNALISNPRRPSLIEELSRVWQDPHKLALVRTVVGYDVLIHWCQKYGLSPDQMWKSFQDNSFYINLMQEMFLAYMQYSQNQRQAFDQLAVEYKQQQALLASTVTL

B1: NoIPT1 (Nostoc sp. PCC 7120 = FACHB-418) (protein)
chain: T1 sequence (A0ACD7S271 1-244)
notes: full gene in pET-28b(+) (NdeI/SalI), N-terminal polyhistidine tag kept; E. coli BL21(DE3) STAR

Tests used:
NoIPT1 = molecular target: T1, NoIPT1; test: HPLC-UV product determination; trans-zeatin-5'-monophosphate formed; format: biochemical; conditions: with AMP, 10 mM MgCl2, pH 7.5, 25°C
purified protein [1] = substrate: Nc1ncnc2c1ncn2[C@@H]1O[C@H](COP(=O)(O)O)[C@@H](O)[C@H]1O; test: purified protein; format: biochemical, Nostoc sp. PCC 7120 = FACHB-418; conditions: 150 μM DMAPP, 10 mM MgCl2, 100 mM Tris/HCl pH 7.5, 25°C
purified protein [2] = substrate: CC(C)=CCOP(=O)(O)OP(=O)(O)O; test: purified protein; format: biochemical, Nostoc sp. PCC 7120 = FACHB-418; conditions: 20 μM AMP, 10 mM MgCl2, 100 mM Tris/HCl pH 7.5, 25°C

Molecule	HPLC-UV product determination; trans-zeatin-5'-monophosphate formed (NoIPT1)	Km (purified protein [1])	Km (purified protein [2])
C/C(=C\COP(=O)(O)OP(=O)(O)O)CO [HMBPP, (E)-4-hydroxy-3-methyl-but-2-enyl diphosphate]	NoIPT1 used a hydroxylated side chain precursor, HMBPP, to form trans-zeatin-5´-monophosphate in the reaction with AMP	–	–
B1	–	0.63 ± 0.18 µM	27.05 ± 2.47 µM
